Bridge positions count the residues as written; N and C are the ends. Ends that are not written are not given here.
Key:
[1] = target: T1, proprotein convertase subtilisin/kexin type 9 (PCSK9) (human, UniProt Q8NBP7 31-152); assay: phage competition ELISA; competing phage K9gvpep4
[2] = target: T1, proprotein convertase subtilisin/kexin …; assay: phage competition ELISA; competing phage pep2-8
[3] = target: T1, proprotein convertase subtilisin/kexin …; assay: competition

T1 sequence (Q8NBP7 31-152, chain 1 of 2): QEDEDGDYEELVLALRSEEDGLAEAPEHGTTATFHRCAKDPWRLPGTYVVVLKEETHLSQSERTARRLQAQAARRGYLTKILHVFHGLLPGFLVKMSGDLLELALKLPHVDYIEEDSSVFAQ
T1 sequence (Q8NBP7 153-692, chain 2 of 2): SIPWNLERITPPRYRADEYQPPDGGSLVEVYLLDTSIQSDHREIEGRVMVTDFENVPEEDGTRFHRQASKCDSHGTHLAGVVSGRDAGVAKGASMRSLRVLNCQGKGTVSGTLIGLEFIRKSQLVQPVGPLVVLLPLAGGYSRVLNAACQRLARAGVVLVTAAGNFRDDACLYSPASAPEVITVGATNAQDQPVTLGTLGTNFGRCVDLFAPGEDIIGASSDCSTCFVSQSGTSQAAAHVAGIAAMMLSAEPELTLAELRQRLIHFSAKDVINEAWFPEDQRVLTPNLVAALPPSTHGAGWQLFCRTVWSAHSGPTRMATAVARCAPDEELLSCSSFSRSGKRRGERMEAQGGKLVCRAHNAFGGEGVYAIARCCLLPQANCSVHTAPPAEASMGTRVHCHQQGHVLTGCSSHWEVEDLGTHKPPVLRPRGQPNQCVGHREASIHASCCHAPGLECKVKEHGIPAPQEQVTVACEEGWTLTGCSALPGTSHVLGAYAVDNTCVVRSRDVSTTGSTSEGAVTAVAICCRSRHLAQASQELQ

Question: Ac-TVFTSWEEYLDWVGSGDLMPWNLVRIGLLR-NH2 [Compound 20] was tested. Which IC50 [1] did it give?
Answer: 2.69 nM

Question: What about the IC50 [2] of the same binder?
Answer: 14.5 nM

Question: SGDLMPWNLVRIGLLR [K9gvpep7] was tested. Which IC50 [3] did it give?
Answer: 635 nM

Question: How did the IC50 [1] turn out when Ac-TVFTSWEEYLDWVGSGCRLPWNLQRIGLPC-NH2 (disulfide 17-30 (inferred)) [Compound 19] was run?
Answer: 3.44 nM

Question: What about the IC50 [2] of the same binder?
Answer: 6.19 nM

Question: For SGCRLPWNLQRIGLPC (not fully specified (bridges); cysteine pairing not given here) [K9gvpep4], which IC50 [3] is on record?
Answer: 318 nM
